Laboratory results from patent US20110269227A1 (SHARP, published 2011).
Ends that are not written are not given here. * marks the point of attachment. Biotin = O=C1N[C@H]2[C@H](CS[C@H]2CCCCC(=O)*)N1; PEG (amino-terminated) = not defined here; cellulose membrane = not defined here

T1: human adiponectin (R&D Systems) (human, UniProt Q15848 19-244)
T1 construct: Bought protein; also called ACRP30; GBP28
T1 sequence (looked up): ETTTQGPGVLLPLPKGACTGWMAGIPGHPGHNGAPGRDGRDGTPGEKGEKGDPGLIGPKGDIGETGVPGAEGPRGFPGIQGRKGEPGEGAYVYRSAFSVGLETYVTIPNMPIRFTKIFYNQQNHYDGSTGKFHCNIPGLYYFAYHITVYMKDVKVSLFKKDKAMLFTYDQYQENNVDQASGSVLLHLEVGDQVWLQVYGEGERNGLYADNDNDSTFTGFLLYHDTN


biological target: T1, human adiponectin (R&D Systems); assay: peptide spot on cellulose membrane, sandwich enzyme immunoassay with HRP-tagged anti-adiponectin antibody, fluorescence
Protocol: First, a cellulose membrane was soaked in ethanol. Then, the cellulose membrane was continuously washed with phosphate buffered saline (PBS) (pH 7.4) so that ethanol contained in the cellulose membrane was replaced with PBS. In order that nonspecific binding is inhibited, the cellulose membrane was incubated overnight in a blocking solution (PBS containing 1% milk powder).
Then, the cellulose membrane was incubated for 1 hour in a blocking solution (PBS containing 1% milk powder) which contains 0.25 μg/mL human adiponectin (R&D Systems). Then, the cellulose membrane was washed with PBST (PBS containing 0.1% (v/v) Tween 20). Then, the cellulose membrane was incubated for 1 hour in a blocking solution containing […] anti-human adiponectin antibody (R&D Systems) which is tagged with HRP, and then washed with PBST five times.
After that, 100 μM fluorescent substrate (Amplex Red (Invitrogen)) containing 1 mM hydrogen peroxide was added to the cellulose membrane, and then they react with each other for 10 minutes. A fluorescent intensity in a synthesis spot was measured in such a manner that an […] wavelength of 595 nm of fluorescence from the fluorescent substrate was measured by a fluorescence imager (GE Healthcare) by exciting, with light of 540 nm, the fluorescent substrate in the synthesis spot. A bond strength of the peptide was worked out from the fluorescent intensity in the synthesis spot.

Row | binding result | Binder
1 | binds | MGSFVPW-{PEG (amino-terminated)-cellulose membrane} (reading uncertain, Spot-synthesised on a cellulose membrane; also called MGSFVPW) [peptide consisting of the amino-acid sequence represented by SEQ ID NO: 8]
2 | binds | MGSFVPY-{PEG (amino-terminated)-cellulose membrane} (reading uncertain, also called MGSFVPY) [peptide having the amino-acid sequence represented by SEQ ID NO: 18]
3 | binds | ITPIHWVK-{PEG (amino-terminated)-cellulose membrane} (reading uncertain, Spot-synthesised on a cellulose membrane) [peptide consisting of the amino-acid sequence represented by SEQ ID NO: 14]
4 | binds | APLQEKVVFG-{PEG (amino-terminated)-cellulose membrane} (reading uncertain, Spot-synthesised on a cellulose membrane) [peptide consisting of the amino-acid sequence represented by SEQ ID NO: 6]
5 | binds | RFATPKHR-{PEG (amino-terminated)-cellulose membrane} (reading uncertain, Spot-synthesised on a cellulose membrane) [peptide consisting of the amino-acid sequence represented by SEQ ID NO: 9]
6 | binds | KFATPKHR [peptide having the amino-acid sequence represented by SEQ ID NO: 19]
7 | binds | FRIHTETG-{PEG (amino-terminated)-cellulose membrane} (reading uncertain, Spot-synthesised on a cellulose membrane) [peptide consisting of the amino-acid sequence represented by SEQ ID NO: 4]
8 | binds | LLHGHRPPMP-{PEG (amino-terminated)-cellulose membrane} (reading uncertain, Spot-synthesised on a cellulose membrane) [peptide consisting of the amino-acid sequence represented by SEQ ID NO: 3]
9 | binds | VRVLTLPL-{PEG (amino-terminated)-cellulose membrane} (reading uncertain, Spot-synthesised on a cellulose membrane) [peptide consisting of the amino-acid sequence represented by SEQ ID NO: 1]
10 | binds | LTLPLQAHHAME-{PEG (amino-terminated)-cellulose membrane} (reading uncertain, Spot-synthesised on a cellulose membrane) [peptide consisting of the amino-acid sequence represented by SEQ ID NO: 2]
11 | binds | RQTRAGVF-{PEG (amino-terminated)-cellulose membrane} (reading uncertain, Spot-synthesised on a cellulose membrane) [peptide consisting of the amino-acid sequence represented by SEQ ID NO: 10]
12 | binds | IALLIMGS-{PEG (amino-terminated)-cellulose membrane} (reading uncertain, Spot-synthesised on a cellulose membrane) [peptide consisting of the amino-acid sequence represented by SEQ ID NO: 7]
13 | binds | ILTMLRPNMYF-{PEG (amino-terminated)-cellulose membrane} (reading uncertain, Spot-synthesised on a cellulose membrane) [peptide consisting of the amino-acid sequence represented by SEQ ID NO: 5]
14 | binds | ILLPLRIN-{PEG (amino-terminated)-cellulose membrane} (reading uncertain, Spot-synthesised on a cellulose membrane; also called ILLPLRIN) [peptide consisting of the amino-acid sequence represented by SEQ ID NO: 15]
15 | binds | FLGLGLSGVVPT-{PEG (amino-terminated)-cellulose membrane} (reading uncertain, Spot-synthesised on a cellulose membrane) [peptide consisting of the amino-acid sequence represented by SEQ ID NO: 12]
16 | binds | MHFTIAEG-{PEG (amino-terminated)-cellulose membrane} (reading uncertain, Spot-synthesised on a cellulose membrane) [peptide consisting of the amino-acid sequence represented by SEQ ID NO: 11]
17 | binds | GFVKATTV-{PEG (amino-terminated)-cellulose membrane} (reading uncertain, Spot-synthesised on a cellulose membrane) [peptide consisting of the amino-acid sequence represented by SEQ ID NO: 13]

biological target: T1, human adiponectin (R&D Systems); assay: adiponectin coated on microplate, 1 mM biotin-tagged peptide, HRP-streptavidin, TMB absorbance at 450 nm
Protocol: 5 μg/mL adiponectin (R&D Systems) prepared with PBS was dispensed to wells of a 96-well microplate in an amount of 100 μL per well. Then, the peptides were incubated for 1 hour at 37° C. Adiponectin was thus immobilized in the wells. In order to inhibit nonspecific binding, a blocking solution (Protein-Free Blocking Buffer, PIERCE) was then added to the wells in an amount of 300 μL per well. Then, the peptides were incubated for 2 hours at room temperature. Then, the wells were washed three times with PBST (PBS containing 0.1% (v/v) Tween 20). Then, 1 mM biotin-tagged peptide was added to the wells in an amount of 100 μL per well. Then, the peptides were incubated for 1 hour at room temperature. Then, the wells were washed with PBST again.
Then, HRP-tagged streptavidin (R&D Systems) diluted with 200 parts of the blocking solution (Protein-Free Blocking Buffer, PIERCE) was added to the well in an amount of 100 μL per well. Then, the streptavidin was incubated for 1 hour at room temperature. Then, the wells were washed with PBST. Then, TMB (tetramethylbenzidine) was added to the wells in an amount of 100 μL per well so that they react with each other for 20 minutes. Then, the reaction was stopped by adding 1 M of HCL to the wells in an amount of 100 μL per well. Then, an absorbance at 450 nm was measured by use of a microplate reader (Bio-Rad).

Row | binding result | Binder
18 | binds | ILLPLRINK(Biotin)
19 | binds | ITPIHWVKK(Biotin)
